Read-outs that look alike come from different tables or passages of the source.
Assays:
[1] = molecular target: T1, TGF-β1 (Homo sapiens, UniProt P01137); experiment: 125I-TGF-β1 binding to immobilized α2M-MA, solution-phase competition; settings: mean ± S.E., n=4; 1 h at 22° C.
T1 construct: purchased R&D Systems (Minneapolis, Minn.)
Procedure: The wells were washed three times with PBS-T and blocked with PBS-T for 16 h at 4° C. […] In the presence of a fusion protein (FP) which binds TGF-β, the total concentration of TGF-β [βT ] was related to [βF ], at equilibrium, as follows: [βT ]=[βF ](1+[FP]/KI).

[2] = molecular target: T1, TGF-β1; settings: previously reported in references 31 and 33; mean ± S.E., n=4; read-out: IC50, 125I-TGF-β1 binding to immobilized α2M-MA; cited from earlier work
[3] = molecular target: T2, TGF-β2 (Homo sapiens, UniProt P61812); experiment: Ligand blot analysis of 125I-TGF-β2 binding to PVDF-immobilized proteins; settings: SDS-PAGE, PVDF membrane, 125I-TGF-β2 20 pM, 2 h at 25° C.
T2 construct: purchased Genzyme (Cambridge, Mass.)
T2 sequence (P61812 303-414 limits assumed): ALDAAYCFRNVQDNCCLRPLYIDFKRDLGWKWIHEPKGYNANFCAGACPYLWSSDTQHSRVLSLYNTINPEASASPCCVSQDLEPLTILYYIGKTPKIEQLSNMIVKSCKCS
Procedure: (§1) To block free sulfhydryls, some samples were treated with 5 mM IAM for 2 h at 25° C. Equivalent amounts of each protein ([…]) were subjected to SDS-PAGE on 10% slabs. IAM-treated GST-α2 M-peptide fusion proteins were subjected to SDS-PAGE as well. All samples were electro-transferred to PVDF membranes. The membranes were blocked with 5% milk and 0.1% Tween 20 in PBS for 12 h at 4° C. and then rinsed with 0.1% Tween 20 in PBS (PBS-T). […] Biophys. Res. Commun. […] NGF-β was radioiodinated with Iodogen, to a specific activity of 2-5 μCi/μg, using the method recommended by the manufacturer. […] After washing the membranes with PBS-T, bound radioligands were detected by Phosphorlmager analysis.

[4] = molecular target: T1, TGF-β1; experiment: Ligand blot analysis of 125I-TGF-β1 binding to PVDF-immobilized proteins; settings: SDS-PAGE, PVDF membrane, 125I-TGF-β1, 2 h at 25° C.
Procedure: as §1

[5] = molecular target: T2, TGF-β2; settings: read-out: KD for the binding of TGF-β2; cited from earlier work
[6] = molecular target: T2, TGF-β2; settings: previously reported in references 31 and 33; mean ± S.E., n=4; read-out: IC50, 125I-TGF-β2 binding to immobilized α2M-MA; cited from earlier work
[7] = molecular target: T3, NGF-β (Mus musculus, UniProt P01139); experiment: Ligand blot analysis of 125I-NGF-β binding to PVDF-immobilized proteins; settings: SDS-PAGE, PVDF membrane, 125I-NGF-β 50 pM, 2 h at 25° C.
T3 construct: from tissue; host or cells: male mouse submaxillary glands
Procedure: as §1

[8] = molecular target: T4, 125I-TGF-β1 binding to immobilized FP3 (Homo sapiens, UniProt P01023+P01137); experiment: Competition for 125I-TGF-β1 binding to PVDF-immobilized FP3; settings: unlabeled TGF-β1 0.2 μM
T4 construct: corresponding to amino acids 614-797 and 798-1082, respectively; made in house
Procedure: as §1

[9] = tested on: FBHE cells; experiment: Endothelial cell proliferation assay, TGF-β alone; format: cell-based, bovine; settings: TGF-β 10 pM, 1 h pulse
Procedure: Fetal bovine heart endothelial (FBHE) cells were cultured in DMEM supplemented with 10% FBS, 20 ng/ml acidic fibroblast growth factor, and 80 ng/ml basic fibroblast growth factor and passaged at subconfluence with trypsin-EDTA. To perform proliferation assays, the cells were plated at a density of 2×10^4 /well (24 well plates) in DMEM supplemented with 0.2% FBS. […] The fusion proteins were preincubated with the TGF-β for 15 min prior to addition to the cultures. At the completion of an incubation, the cultures were washed 3 times with serum-free DMEM and then allowed to incubate in DMEM with 0.2% FBS for 30 h. [^3 H]Thymidine was added for an additional 18 h; the cells were then harvested and [^3 H]thymidine incorporation was quantitated.

T1 sequence (P01137 279-390 limits assumed, species assumed): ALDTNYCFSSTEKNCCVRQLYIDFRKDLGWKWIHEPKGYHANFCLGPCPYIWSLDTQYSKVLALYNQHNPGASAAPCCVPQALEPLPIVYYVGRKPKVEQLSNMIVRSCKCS
T3 sequence (P01139 122-239 limits assumed): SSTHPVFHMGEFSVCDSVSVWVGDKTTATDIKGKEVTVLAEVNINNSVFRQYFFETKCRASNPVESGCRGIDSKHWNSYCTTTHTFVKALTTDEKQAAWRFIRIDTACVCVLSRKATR
T4 sequence (P01023 with tags, fused parts or gaps limits assumed): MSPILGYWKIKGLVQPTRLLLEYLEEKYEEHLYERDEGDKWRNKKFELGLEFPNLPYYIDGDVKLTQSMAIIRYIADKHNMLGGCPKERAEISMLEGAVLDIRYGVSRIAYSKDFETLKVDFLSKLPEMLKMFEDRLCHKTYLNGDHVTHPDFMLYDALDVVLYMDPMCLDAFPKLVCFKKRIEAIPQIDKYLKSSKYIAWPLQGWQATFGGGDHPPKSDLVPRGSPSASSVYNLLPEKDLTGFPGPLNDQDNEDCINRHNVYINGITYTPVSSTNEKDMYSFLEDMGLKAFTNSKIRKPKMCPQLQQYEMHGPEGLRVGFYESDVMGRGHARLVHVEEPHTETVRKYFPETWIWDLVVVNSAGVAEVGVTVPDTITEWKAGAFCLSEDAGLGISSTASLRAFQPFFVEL
T4 sequence (P01137 279-390 limits assumed): as the sequence (P01137 279-390 limits assumed, species assumed) above

For “α2 M monomer: prepared by exposing native α2M to 2 mM DTT under non-denaturing conditions”, the IC50 [1] was 360 ± 48 nM.

In the case of “Thrombospondin: solution-phase inhibitor of TGF-β binding to immobilized α2M-MA [reference compound]”, the IC50 [2] is listed as 160 ± 18 nM.

In the case of “α2 M: Human α2-macroglobulin, 718-kDa homotetrameric glycoprotein purified from plasma”, the “125I-TGF-β2 binding, ligand blot” value [3] is listed as “bound”, the “125I-TGF-β1 binding, ligand blot” value [4] is listed as “bound” and the Kd [5] is listed as 10 nM. For the same substance, the IC50 [6] was 19 ± 3 nM, the IC50 [2] was 520 ± 39 nM and the “125I-NGF-β binding, ligand blot” value [7] was “bound”.

For “TGF-β1: transforming growth factor-β1 from R&D Systems”, the “Inhibition of 125I-TGF-β1 binding to immobilized FP3” value [8] was 72±8% and the “Decrease of [3H]thymidine incorporation” value [9] was 69%.
